The RNAGym collection of RNA variant scans (doi:10.7554/elife.80360)

B1: Hairpin Ribozyme (parent)
chain: GUCCUCUUUCACGUGCGCGUGAAAGAGAGAAGUGAACCAGAGAAACACACGUUGUGGUAUAUUACCUGGUA

Variants of: B1
Assay: self-cleavage, relative activity (ratio to wild type); higher = more cleavage; co-transcriptional
In the case of U14A G51A, the self-cleavage is reported as 0.957.
In the case of G13U A59C, the self-cleavage is reported as 0.161.
G13U A59U gave a self-cleavage of 0.181.
For G13U G69C, the self-cleavage was 0.198.
With U14C U62G the self-cleavage was 0.218.
Work on U14C U62C yielded a self-cleavage of 0.0439.
In the case of U14C U62A, the self-cleavage is reported as 0.142.
U14G G32A showed a self-cleavage of 0.191.
Variant U14G G32U has a self-cleavage of 0.107.
In the case of G13U U70A, the self-cleavage is reported as 0.771.
U14G A43U showed a self-cleavage of 0.186.
Work on U14G A43G yielded a self-cleavage of 0.0894.
For G13U A45U, the self-cleavage was 0.136.
Variant G13U U67G has a self-cleavage of 0.241.
Variant G13U G27U has a self-cleavage of 0.215.
In the case of G13U G27A, the self-cleavage is reported as 0.347.
For U14G A71U, the self-cleavage was 0.678.
Work on G13A U67G yielded a self-cleavage of 0.18.
With G13C U70A the self-cleavage was 0.475.
In the case of G13C U70C, the self-cleavage is reported as 0.716.
Work on U14A A49C yielded a self-cleavage of 0.117.
U14A A49G showed a self-cleavage of 0.554.
Variant U14G C50G has a self-cleavage of 0.2.
In the case of U14G C50U, the self-cleavage is reported as 0.2.
Work on G13C G15A yielded a self-cleavage of 0.74.
Variant G13C G15C has a self-cleavage of 0.541.
In the case of U14C A39U, the self-cleavage is reported as 0.387.
Variant U14C A31G has a self-cleavage of 0.737.
Work on G13U A24G yielded a self-cleavage of 0.681.
G13U A23C gave a self-cleavage of 0.557.
In the case of U14C A64U, the self-cleavage is reported as 0.199.
Work on U14C A64C yielded a self-cleavage of 0.257.
Work on U14G A28G yielded a self-cleavage of 1.15.
With U14G A28C the self-cleavage was 0.589.
U14G G54A gave a self-cleavage of 0.439.
Variant U14A G69U has a self-cleavage of 0.205.
For U14A G69C, the self-cleavage was 0.337.
In the case of U14G G40C, the self-cleavage is reported as 0.111.
In the case of U14C U67C, the self-cleavage is reported as 0.227.
Work on U14G C37A yielded a self-cleavage of 0.276.
For U14G C37G, the self-cleavage was 0.276.
For U14A A35U, the self-cleavage was 0.656.
G13U A22C showed a self-cleavage of 0.533.
In the case of G13U A22U, the self-cleavage is reported as 0.622.
For U14C C65U, the self-cleavage was 0.295.
U14G A26U gave a self-cleavage of 0.549.
With U14G A26C the self-cleavage was 0.522.
For U14A G21C, the self-cleavage was 0.467.
Work on U14C A23C yielded a self-cleavage of 0.693.
U14C G27A showed a self-cleavage of 0.423.
Work on U14A U62G yielded a self-cleavage of 0.125.
With U14A U62C the self-cleavage was 0.257.
Work on U14G A22U yielded a self-cleavage of 0.683.
In the case of U14G A22G, the self-cleavage is reported as 0.798.
G13U C38G showed a self-cleavage of 0.136.
For G13U A41G, the self-cleavage was 0.752.
G13U A41U showed a self-cleavage of 1.15.
G13U A71U gave a self-cleavage of 0.684.
U14G G17A gave a self-cleavage of 0.854.
For G13U G56C, the self-cleavage was 0.12.
For G13C A22G, the self-cleavage was 0.496.
Variant U14C G69A has a self-cleavage of 0.341.
With G13U G68U the self-cleavage was 0.243.
G13C U60G gave a self-cleavage of 0.479.
For U14A A59G, the self-cleavage was 0.0952.
Work on U14C C38G yielded a self-cleavage of 0.246.
U14A C66G showed a self-cleavage of 0.143.
In the case of U14C C48A, the self-cleavage is reported as 0.256.
Variant U14C C48U has a self-cleavage of 0.117.
U14G U58A gave a self-cleavage of 0.753.
G13C C37G gave a self-cleavage of 0.183.
Work on U14A G54C yielded a self-cleavage of 0.338.
For G13C C50A, the self-cleavage was 0.137.
For G13C C50U, the self-cleavage was 0.281.
U14C G32C gave a self-cleavage of 0.244.
Work on U14C G32U yielded a self-cleavage of 0.138.
Work on U14A U60C yielded a self-cleavage of 1.07.
U14A U60A showed a self-cleavage of 0.987.
With G13A U55C the self-cleavage was 0.214.
With G13U G17U the self-cleavage was 0.712.
Variant G13A G56C has a self-cleavage of 0.119.
With G13C U52C the self-cleavage was 0.646.
With G13C U52G the self-cleavage was 0.76.
For G13U A39G, the self-cleavage was 0.273.
For U14A A28C, the self-cleavage was 0.454.
Work on U14G A64C yielded a self-cleavage of 0.27.
G13U G54A gave a self-cleavage of 0.518.
With U14A U53G the self-cleavage was 0.899.
U14A U53C gave a self-cleavage of 1.07.
Variant U14A C38A has a self-cleavage of 0.171.
For U14A A41G, the self-cleavage was 0.867.
Variant G13A C50U has a self-cleavage of 0.373.
For G13U G40A, the self-cleavage was 0.342.
For U14A G68A, the self-cleavage was 0.173.
Variant U14A G68U has a self-cleavage of 0.307.
G13A C66U gave a self-cleavage of 0.419.
In the case of G13A C66A, the self-cleavage is reported as 0.173.
For U14A U55A, the self-cleavage was 0.201.
Variant U14A U55C has a self-cleavage of 0.206.
G13C A71U showed a self-cleavage of 0.41.
For G13U A36C, the self-cleavage was 0.537.
G13C G29U gave a self-cleavage of 0.0913.
Variant G13A G40U has a self-cleavage of 0.129.
With U14G G57U the self-cleavage was 0.234.
With G13A G19U the self-cleavage was 0.825.
Variant G13A G19C has a self-cleavage of 0.804.
Variant G13C G56A has a self-cleavage of 0.137.
G13C A47C showed a self-cleavage of 0.205.
G13C A47U showed a self-cleavage of 0.109.
In the case of G13C A47G, the self-cleavage is reported as 0.21.
Variant U14C A22G has a self-cleavage of 0.864.
G13C U63G gave a self-cleavage of 0.164.
For G13C U63C, the self-cleavage was 0.111.
U14C A61G gave a self-cleavage of 0.133.
Variant U14C A61C has a self-cleavage of 0.162.
Variant U14C G29A has a self-cleavage of 0.0903.
Variant U14G G15C has a self-cleavage of 0.864.
Variant G13A G57U has a self-cleavage of 0.205.
With U14C G51U the self-cleavage was 1.07.
With U14C G51A the self-cleavage was 0.854.
For U14A G32A, the self-cleavage was 0.106.
U14A G32U gave a self-cleavage of 0.108.
Work on U14G G25U yielded a self-cleavage of 0.492.
Work on U14G G25C yielded a self-cleavage of 0.312.
With G13C A45U the self-cleavage was 0.0506.
G13C A45C showed a self-cleavage of 0.145.
G13C A45G showed a self-cleavage of 0.178.
Variant U14C G21A has a self-cleavage of 0.865.
With G13U A30C the self-cleavage was 0.166.
Variant U14G A47U has a self-cleavage of 0.105.
In the case of U14G G34C, the self-cleavage is reported as 1.52.
U14A A71U gave a self-cleavage of 0.645.
With U14A A71C the self-cleavage was 1.34.
With U14C G34C the self-cleavage was 1.5.
U14A A36U gave a self-cleavage of 0.582.
Variant U14A A36C has a self-cleavage of 0.502.
U14C U52C showed a self-cleavage of 0.938.
In the case of U14A A45G, the self-cleavage is reported as 0.0459.
G13U G32A gave a self-cleavage of 0.183.
Variant U14A G25C has a self-cleavage of 0.418.
G13U A61U gave a self-cleavage of 0.181.
U14C A71G gave a self-cleavage of 1.24.
Work on U14C A71C yielded a self-cleavage of 1.59.
In the case of U14C G56U, the self-cleavage is reported as 0.126.
Variant U14C G56C has a self-cleavage of 0.163.
For G13U G25C, the self-cleavage was 0.274.
U14A A43U showed a self-cleavage of 0.0759.
With G13U G42C the self-cleavage was 0.227.
Work on U14A C48A yielded a self-cleavage of 0.179.
U14A C48G showed a self-cleavage of 0.196.
U14G U20C showed a self-cleavage of 0.992.
Variant U14G U20A has a self-cleavage of 0.866.
Work on U14C A30C yielded a self-cleavage of 0.263.
Work on G13C A28C yielded a self-cleavage of 0.343.
U14C A45U showed a self-cleavage of 0.119.
With G13U A47U the self-cleavage was 0.129.
G13U A47C gave a self-cleavage of 0.326.
G13U A47G showed a self-cleavage of 0.143.
Work on G13A G17A yielded a self-cleavage of 0.747.
Work on G13A G17C yielded a self-cleavage of 0.507.
Variant U14G G42C has a self-cleavage of 0.101.
Variant G13U U14C has a self-cleavage of 0.544.
U14A C46U showed a self-cleavage of 0.126.
For G13U C48G, the self-cleavage was 0.106.
Work on U14G A49U yielded a self-cleavage of 0.0246.
G13U U33A gave a self-cleavage of 0.105.
U14A A26C gave a self-cleavage of 0.817.
